# Laboratory results: PMC2535662, “Identification of COUP-TFII Orphan Nuclear Receptor as a Retinoic Acid–Activated Receptor” (PLoS Biology, 2008)
# Where no end group is shown, it is not given here.
# T1: COUP-TFII (Homo sapiens, UniProt P24468, C174S)
# T1 construct: gene NR2F2; LBD (residues 173–414 with C174S mutation), 6X His-GST fusion protein
# T1 sequence (P24468 173-414 C174S): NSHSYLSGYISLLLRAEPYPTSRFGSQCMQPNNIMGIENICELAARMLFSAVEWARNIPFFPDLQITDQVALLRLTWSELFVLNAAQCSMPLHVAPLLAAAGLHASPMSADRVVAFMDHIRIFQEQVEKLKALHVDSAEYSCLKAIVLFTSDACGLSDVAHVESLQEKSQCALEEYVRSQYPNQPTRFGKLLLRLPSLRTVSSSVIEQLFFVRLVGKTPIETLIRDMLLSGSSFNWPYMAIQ
# T2: 6X His-GST-COUP-TFII LBD fusion protein (human, UniProt P24468 173-414, C174S)
# T2 construct: The limits and C174S come from the protein preparation paragraph; also called receptor LBD; source: E. coli BL21 (DE3), purified as a 6X His-GST fusion protein; not shown: 6x Histidine, N-terminal, kept; GST, N-terminal, kept
# T2 sequence (looked up): T1 sequence (P24468 173-414 C174S)
# B1: COUP-TFII L364A/L365A double mutant (natural protein)
# chain: MAMVVSTWRDPQDEVPGSQGSQASQAPPVPGPPPGAPHTPQTPGQGGPASTPAQTAAGGQGGPGGPGSDKQQQQQHIECVVCGDKSSGKHYGQFTCEGCKSFFKRSVRRNLSYTCRANRNCPIDQHHRNQCQYCRLKKCLKVGMRREAVQRGRMPPTQPTHGQFALTNGDPLNCHSYLSGYISLLLRAEPYPTSRFGSQCMQPNNIMGIENICELAARMLFSAVEWARNIPFFPDLQITDQVALLRLTWSELFVLNAAQCSMPLHVAPLLAAAGLHASPMSADRVVAFMDHIRIFQEQVEKLKALHVDSAEYSCLKAIVLFTSDACGLSDVAHVESLQEKSQCALEEYVRSQYPNQPTRFGKLAARLPSLRTVSSSVIEQLFFVRLVGKTPIETLIRDMLLSGSSFNWPYMAIQ
# B2: human COUP-TFII ligand-binding domain (residues 173–414, C174S), tag cleaved (domain or fragment, UniProt P24468 173-414, looked up)
# chain: T1 sequence (P24468 173-414 C174S)
# notes: Ligand-free; One LBD per asymmetric unit; The model lacks 13 residues between α1 and α3, 17 residues between α5 and α6, and the C-terminal seven residues; also called COUP-TFII LBD; apo-COUP-TFII; source: E. coli BL21 (DE3), purified (glutathione-sepharose, thrombin cleavage, Ni2+ chelating sepharose); not shown: 6x Histidine, N-terminal, cleaved; GST, N-terminal, cleaved
# Tests used:
# [1] = biological target: T1, COUP-TFII; experiment: AlphaScreen ligand-dependent coactivator peptide recruitment to purified LBD; also NGFI-A luciferase reporter in COS-7 cells; type: binding
# [2] = biological target: full-length COUP-TFII (mouse expression plasmid) (mouse) (UniProt P43135)
# [3] = biological target: COUP-TFII L364A/L365A double mutant (mouse) (UniProt P43135)
# [4] = biological target: the molecule itself; experiment: crystal structure; ligand-free LBD, no cofactor peptide; hanging drops at 20 °C, well buffer 1.3 M or 1.5 M imidazole pH 5.6 and 1% Pluronic F68; space group C2, one LBD per asymmetric unit, symmetric dimer through crystal packing
# [5] = biological target: T2, 6X His-GST-COUP-TFII LBD fusion protein; experiment: AlphaScreen or HTRF; approximately 0.4 μM 6X His-GST receptor LBD and 0.1 μM biotinylated peptide, 20 μg/ml donor and acceptor beads; 50 mM MOPS, 50 mM NaF, 50 mM CHAPS, 0.1 mg/ml bovine serum albumin, pH 7.4; with 50 μM 9-cis-retinoic acid; conditions: both partners purified
molecule,measurement,setting,value
"CC1=C(/C=C/C(C)=C\C=C\C(C)=C\C(=O)O)C(C)(C)CCC1 [9cRA, 9-cis-retinoic acid]",EC50,[1],17 µM
"CC1=C(/C=C/C(C)=C/C=C/C(C)=C/C(=O)O)C(C)(C)CCC1 [ATRA, all-trans-retinoic acid]",EC50,[1],26 µM
SRC-3 (wild type) (from UniProt Q9Y6Q9 1-1424) (natural protein),"NGFI-A promoter luciferase reporter in COS-7 cells, COUP-TFII cotransfected with SRC-3, relative to COUP-TFII alone",[2],> 2 fold
B1,"activation of the NGFI-A promoter luciferase reporter in COS-7 cells, relative to wild-type COUP-TFII",[3],20%
B2,binding result,[4],binds
"AENQRGPLESKGHKKLLQLLTSS (also: biotinylated, position not given here) [biotinylated SRC3–1 peptide]",binding result,[5],binds
